# Source: paper PMC6219724
# Legend:
# [1] = molecular target: dynamic microtubules grown from coverslip-anchored GMPCPP-stabilized seeds with purified bovine brain tubulin (bovine) (UniProt Q6B856); test: laser trap bead assay; protein held on streptavidin beads by biotinylated His5 antibody (60, 600, 6,500 nM); dynamic microtubules from coverslip-anchored seeds, 6 µM bovine brain tubulin; preload 0.8 ± 0.3 pN (3.3 ± 0.5 pN for Ndc80 complex), friction coefficient on the lattice, then force ramp of 0.25 pN/s until rupture of the tip attachment
# [2] = molecular target: biotinylated Taxol-stabilized microtubules grown from bovine tubulin (bovine) (UniProt Q6B856); test: single-molecule TIRF microscopy; biotinylated Taxol-stabilized microtubules tethered to the coverslip; 1.5 nM 549SNAP-tagged KKT4 in BRB80, 1 mg/ml κ-casein, 1 mM DTT, 10 µM Taxol; residence time, lattice diffusion and brightness of single particles
substance,measurement,setting,value
6HIS-KKT4 115-343 (domain or fragment),average rupture force of tip attachments,[1],2.1 pN
"charge-reversal mutant KKT4 115-343 (R123E, K132E, R154E) (domain or fragment)",average rupture force of tip attachments,[1],1.6 pN
"full-length KKT4 fused with an N-terminal SNAP-6HIS-3FLAG tag, labeled with 549SNAP dye (natural protein)",average residence time,[2],5.4 s
same,diffusion coefficient on the microtubule lattice,[2],0.0071 µm^2/s
"full-length charge-reversal mutant KKT4 (R123E, K132E, R154E), 549SNAP-tagged (natural protein)",fold change of the average residence time against wild-type KKT4,[2],2 fold shorter
same,fold change of the lattice diffusion against wild-type KKT4,[2],2 fold faster
